# Numbering of substitutions follows the chain as printed.
# T1: human CD73 (huCD73) protein, antigen of the Biacore assay (human, UniProt P21589 27-547, limits assumed)
# T1 construct: also called human CD73 antigen
# T1 sequence (looked up): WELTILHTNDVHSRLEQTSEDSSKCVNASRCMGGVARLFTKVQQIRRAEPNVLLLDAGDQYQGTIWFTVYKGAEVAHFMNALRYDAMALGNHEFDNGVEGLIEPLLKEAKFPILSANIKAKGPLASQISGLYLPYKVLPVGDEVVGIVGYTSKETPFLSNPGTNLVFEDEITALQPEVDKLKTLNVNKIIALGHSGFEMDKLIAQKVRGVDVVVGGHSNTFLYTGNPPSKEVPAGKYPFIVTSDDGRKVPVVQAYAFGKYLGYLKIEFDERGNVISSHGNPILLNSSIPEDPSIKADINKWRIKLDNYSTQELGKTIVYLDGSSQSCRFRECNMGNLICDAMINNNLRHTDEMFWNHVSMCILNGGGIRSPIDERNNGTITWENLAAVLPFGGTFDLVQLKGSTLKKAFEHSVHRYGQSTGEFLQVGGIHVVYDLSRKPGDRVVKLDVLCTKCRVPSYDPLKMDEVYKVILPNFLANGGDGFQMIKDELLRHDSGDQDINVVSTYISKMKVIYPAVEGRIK
# B1: Hab108.15 (antibody, V domains shown)
# VH: EVTLKESGPVLVKPTETLTLTCTVSGFSLKSYGIQWVRQPPGKLLEWLGVIWSGGSADYNAAFISRLTISKDTSKSQVVLTMTNMDPVDTATYYCAGQYGSVWGQGTLVTVSS
# VL: DIQMTQSPSSLSASVGDRVTITCRASQDIGDRLNWYQQKPGKAPKRLIYATSSLDSGVPSRFSGSGSGTEFTLTISSLQPEDFATYYCLQYAGSWTFGGGTKVEIK
# notes: VL1 + VH5; full-length antibody
# B2: Hab108.23 (antibody, V domains shown)
# VH: B1 VH with K30S
# VL: B1 VL with Y36L, P44I, F71Y
# notes: VL2 + VH3; full-length antibody
# B3: Hab108.65 (antibody, V domains shown)
# VH: B1 VH
# VL: B1 VL with Y36L, K42G, P44I, S60K, F71Y
# notes: VL6 + VH5; full-length antibody
# B4: Hab108.63 (antibody, V domains shown)
# VH: B1 VH with K30S
# VL: B1 VL with Y36L, K42G, P44I, S60K, F71Y
# notes: VL6 + VH3; full-length antibody
# B5: Hab108.34 (antibody, V domains shown)
# VH: B1 VH with E6Q, V10G, K30S, L44G
# VL: B1 VL with Y36L, K42G, P44I, F71Y
# notes: VL3 + VH4; full-length antibody
# B6: Hab108.25 (antibody, V domains shown)
# VH: B1 VH
# VL: B1 VL with Y36L, P44I, F71Y
# notes: VL2 + VH5; full-length antibody
# B7: Hab108.35 (antibody, V domains shown)
# VH: B1 VH
# VL: B1 VL with Y36L, K42G, P44I, F71Y
# notes: VL3 + VH5; full-length antibody
# B8: Hab108.53 (antibody, V domains shown)
# VH: B1 VH with K30S
# VL: B1 VL with Y36L, P44I, S60K, F71Y
# notes: VL5 + VH3; full-length antibody
# B9: Hab108.62 (antibody, V domains shown)
# VH: B1 VH with K30S, V37I, G49A
# VL: B1 VL with Y36L, K42G, P44I, S60K, F71Y
# notes: VL6 + VH2; full-length antibody
# B10: Hab108.45 (antibody, V domains shown)
# VH: B1 VH
# VL: B1 VL with Y36L, K42G, P44I, T69S, F71Y, T85D
# notes: VL4 + VH5; full-length antibody
# B11: Hab108.52 (antibody, V domains shown)
# VH: B1 VH with K30S, V37I, G49A
# VL: B1 VL with Y36L, P44I, S60K, F71Y
# notes: VL5 + VH2; full-length antibody
# Molecular target: T1, human CD73 (huCD73) protein, antigen of …
# Test: SPR Biacore T200; antibody captured on Protein A chip, CD73 in flow; 1:1 Langmuir
# Text: In this experiment, Biacore instrument was used to determine the affinity of the humanized anti-CD73 antibodies to be tested with human CD73 (huCD73) and monkey CD73 (cynoCD73).
# A certain amount of test antibody was affinity-captured with Protein A biosensing chip (Cat. #29127556, GE), and then a certain concentration of human or monkey CD73 antigen was allowed to flow through the surface of the chip. The reaction signals were detected in real time with Biacore instrument (Biacore T200, GE) to generate a binding and dissociation curve. At the end of each cycle, after the dissociation was completed, the biosensor chip was washed and regenerated with Glycine-HCl, pH1.5 (Cat. #BR-1003-54, GE). The running buffer for the assay was 1×HBS-EP buffer solution (Cat. #BR-1001-88, GE).
# The data obtained from the experiment was fitted against (1:1) Langmuir model using GE Biacore T200 Evaluation version 3.0 software, and the affinity values were obtained, as shown in Table 12 and Table 13 for details.
Kd [pM],koff [s⁻¹],kon [M⁻¹ s⁻¹],Molecule
485,0.000121,249000,B1
913,0.000187,205000,B2
246,6.93e-05,281000,B3
513,0.000117,228000,B4
999,0.000106,106000,B5
349,0.000101,290000,B6
280,8.09e-05,290000,B7
609,0.000156,257000,B8
382,8.68e-05,227000,B9
253,7.38e-05,292000,B10
930,0.000241,260000,B11

# Molecular target: human CD73 on tumor cell line MDA-MB-231 that highly expresses human CD73 (human) (UniProt P21589)
# Test: cell-based or functional assay
row,IC50 (nM) in the assay showing the inhibition of enzyme activity in MDA-MB-231 cell [nM],Molecule
1,0.565,MEDI9447 (antibody MEDI9447 disclosed in patent application WO2016075099)
